These results are taken from US20240327535A1 (EISAI R AND D MANAGEMENT, published 2024).

The target of assay [1] is T1, human BCMA on NCI-H929, OPM2 and Raji cells (human, UniProt Q02223 1-184).
T1 construct: endogenous BCMA of human cell lines; also called TNFRSF17; CD269
T1 chain: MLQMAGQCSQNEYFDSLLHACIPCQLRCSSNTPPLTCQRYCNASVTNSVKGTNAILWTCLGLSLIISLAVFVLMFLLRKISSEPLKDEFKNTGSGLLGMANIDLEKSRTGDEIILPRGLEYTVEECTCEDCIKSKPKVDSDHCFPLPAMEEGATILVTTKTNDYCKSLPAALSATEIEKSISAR
Briefly: flow cytometry, NCI-H929 cells.

Assay [2] deals with T2, extracellular domain of rhesus monkey BCMA (rhesus monkey, UniProt F7FFA0 1-53).
T2 construct: extracellular domain; also called RhBCMA
T2 sequence (F7FFA0 entry or part of it): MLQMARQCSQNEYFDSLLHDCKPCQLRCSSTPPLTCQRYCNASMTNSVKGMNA
Briefly: Octet BLI; Fab 200 nM.

The target in assay [3] is T3, extracellular domain of human BCMA (human, UniProt Q02223 1-54).
T3 construct: amine-linked to Octet AR2G tips; also called hsBCMA; BCMA (human)
T3 sequence: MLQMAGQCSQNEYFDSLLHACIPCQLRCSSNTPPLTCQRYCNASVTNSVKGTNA
Briefly: Octet BLI; Fab 200 nM.

B1: AB212-ADL1-D2-02 (antibody, human IgG1, kappa, V domains shown)
VH: QVQLVQSGAEVKKPGSSVKVSCKASGGTFSNYWIHWVRQAPGQGLEWMGGTYRSHSDTNYNQKFKSRVTITADKSTSTAYMELSSLRSEDTAVYYCARGAIYHGYDVIENWGQGTLVTVSS
VL: DIQMTQSPSSLSASVGDRVTITCRASQSISSYLNWYQQKPGKAPKLLIYATSNLQIGVPSRFSGSGSGTDFTLTISSLQPEDFATYYCQQFRRLPWTFGQGTKLEIKR
modifications: ADL1-D2 linker-payload on cysteine residues of the antibody, DAR 5.17
B1 gave a Kd in assay [1] of 1.3 nM.

B2: AB200-(2Vk44)_R2-VH-v61 (Fab, V domains shown)
VH: QVQLVQSGAEVKKPGSSVKVSCKASGGTFSNYWIHWVRQAPGQGLEWMGGTYRIHSDTYYNQKYKSRVTITADKSTSTAYMELSSLRSEDTAVYYCARGAIYHGYDVIENWGQGTLVTVSS
VL: DIQMTQSPSSLSASVGDRVTITCRASQSISSYINWYQQKPGKAPKLLIYATSNLQIGVPSRFSGSGSGTDFTLTISSLQPEDFATYYCQQYRRLPWSFGQGTKLEIKR
Turning to B2, the Kd in assay [2] was found to be 59.6 nM; in assay [3], 19.2 nM.

B3: AB200-(2Vk44)_R2-VH-v70 (Fab, V domains shown)
VH: QVQLVQSGAEVKKPGSSVKVSCKASGGTFSNYWIHWVRQAPGQGLEWMGATYRIHSDTNYNQKYKSRVTITADKSTSTAYMELSSLRSEDTAVYYCARGAVYHGYDVIDNWGQGTLVTVSS
VL: DIQMTQSPSSLSASVGDRVTITCRASQSISSYINWYQQKPGKAPKLLIYATSNLQIGVPSRFSGSGSGTDFTLTISSLQPEDFATYYCQQYRRLPWSFGQGTKLEIKR
For the molecule B3, the Kd in assay [2] stood at 35.8 nM; in assay [3] it was 12.4 nM.

B4: AB200-(2Vk44)_R2-VH-v60 (Fab, V domains shown)
VH: QVQLVQSGAEVKKPGSSVKVSCKASGGTFSNYWIHWVRQAPGQGLEWMGGTYRIQSDTYYNQKFKSRVTITADKSTSTAYMELSSLRSEDTAVYYCARGAIYHGYDVIENWGQGTLVTVSS
VL: DIQMTQSPSSLSASVGDRVTITCRASQSISSYINWYQQKPGKAPKLLIYATSNLQIGVPSRFSGSGSGTDFTLTISSLQPEDFATYYCQQYRRLPWSFGQGTKLEIKR
Take B4: the Kd was 38.6 nM in assay [2] and 11.1 nM in assay [3].

B5: AB200-(2Vk44)_R2-VH-v72 (Fab, V domains shown)
VH: QVQLVQSGAEVKKPGSSVKVSCKASGGTFSNYWIHWVRQAPGQGLEWMGATYRIQSDTYYAQKFKSRVTITADKSTSTAYMELSSLRSEDTAVYYCARGAVYHGYDVIDNWGQGTLVTVSS
VL: DIQMTQSPSSLSASVGDRVTITCRASQSISSYINWYQQKPGKAPKLLIYATSNLQIGVPSRFSGSGSGTDFTLTISSLQPEDFATYYCQQYRRLPWSFGQGTKLEIKR
As to B5, the figures for the Kd in assay [2] and in assay [3] were 12.4 nM and 2.16 nM, respectively.

B6: AB200-(2Vk44)_R2-VH-v28 (Fab, V domains shown)
VH: QVQLVQSGAEVKKPGSSVKVSCKASGGTFSNYWIHWVRQAPGQGLEWMGATYRSHSTTYYNQKYKSRVTITADKSTSTAYMELSSLRSEDTAVYYCARGAIYHGFDVIDNWGQGTLVTVSS
VL: DIQMTQSPSSLSASVGDRVTITCRASQSISSYINWYQQKPGKAPKLLIYATSNLQIGVPSRFSGSGSGTDFTLTISSLQPEDFATYYCQQYRRLPWSFGQGTKLEIKR
Consider B6, for which the Kd came out at 20.9 nM in assay [2] and 10.9 nM in assay [3].

B7: AB200-(2Vk44)_R2-VH-v35 (Fab, V domains shown)
VH: QVQLVQSGAEVKKPGSSVKVSCKASGGTFSNYWIHWVRQAPGQGLEWMGATYRSHSDTYYAQKYKSRVTITADKSTSTAYMELSSLRSEDTAVYYCARGAIYHGYDVIENWGQGTLVTVSS
VL: DIQMTQSPSSLSASVGDRVTITCRASQSISSYINWYQQKPGKAPKLLIYATSNLQIGVPSRFSGSGSGTDFTLTISSLQPEDFATYYCQQYRRLPWSFGQGTKLEIKR
Regarding B7, the Kd in assay [2] was determined as 52.8 nM; in assay [3], 16.2 nM.

B8: AB200-(2Vk44)_R2-VH-v14 (Fab, V domains shown)
VH: QVQLVQSGAEVKKPGSSVKVSCKASGGSFSNYWIHWVRQAPGQGLEWMGATYRSHSTTYYNEKFKSRVTITADKSTSTAYMELSSLRSEDTAVYYCARGAVYHGYDVIDNWGQGTLVTVSS
VL: DIQMTQSPSSLSASVGDRVTITCRASQSISSYINWYQQKPGKAPKLLIYATSNLQIGVPSRFSGSGSGTDFTLTISSLQPEDFATYYCQQYRRLPWSFGQGTKLEIKR
With B8, the Kd was 16.9 nM in assay [2] and 7.55 nM in assay [3].

B9: AB200-(2Vk44)_R2-VH-v58 (Fab, V domains shown)
VH: QVQLVQSGAEVKKPGSSVKVSCKASGGTFSNYWIHWVRQAPGQGLEWMGGTYRIHSDTNYNQKFKSRVTITADKSTSTAYMELSSLRSEDTAVYYCARGAIYHGFDVIDNWGQGTLVTVSS
VL: DIQMTQSPSSLSASVGDRVTITCRASQSISSYINWYQQKPGKAPKLLIYATSNLQIGVPSRFSGSGSGTDFTLTISSLQPEDFATYYCQQYRRLPWSFGQGTKLEIKR
With B9, the Kd in assay [2] is 52.6 nM; in assay [3], 27.2 nM.

B10: AB200-(2Vk44)_R2-VH-v64 (Fab, V domains shown)
VH: QVQLVQSGAEVKKPGSSVKVSCKASGGTFSNYWIHWVRQAPGQGLEWMGATYRIHSTTYYAQKFKSRVTITADKSTSTAYMELSSLRSEDTAVYYCARGAIYHGFDVIDNWGQGTLVTVSS
VL: DIQMTQSPSSLSASVGDRVTITCRASQSISSYINWYQQKPGKAPKLLIYATSNLQIGVPSRFSGSGSGTDFTLTISSLQPEDFATYYCQQYRRLPWSFGQGTKLEIKR
Consider B10, for which the values for the Kd in assay [2] and in assay [3] were 36.5 nM and 22.1 nM, respectively.

B11: AB200-(2Vk44)_R2-VH-v41 (Fab, V domains shown)
VH: QVQLVQSGAEVKKPGSSVKVSCKASGGTFTNYWIHWVRQAPGQGLEWMGGTYRIHSDTYYNEKFKSRVTITADKSTSTAYMELSSLRSEDTAVYYCARGAIYHGFDVIDNWGQGTLVTVSS
VL: DIQMTQSPSSLSASVGDRVTITCRASQSISSYINWYQQKPGKAPKLLIYATSNLQIGVPSRFSGSGSGTDFTLTISSLQPEDFATYYCQQYRRLPWSFGQGTKLEIKR
In the case of B11, the Kd in assay [2] is 12.6 nM; in assay [3], 3.73 nM.

B12: AB200-(2Vk44)_R2-VH-v68 (Fab, V domains shown)
VH: QVQLVQSGAEVKKPGSSVKVSCKASGGTFSNYWIHWVRQAPGQGLEWMGATYRIHSDTNYAQKFKSRVTITADESTSTAYMELSSLRSEDTAVYYCARGAIYHGFDVIDNWGQGTLVTVSS
VL: DIQMTQSPSSLSASVGDRVTITCRASQSISSYINWYQQKPGKAPKLLIYATSNLQIGVPSRFSGSGSGTDFTLTISSLQPEDFATYYCQQYRRLPWSFGQGTKLEIKR
As for B12, the dissociation constant (Kd) in assay [2] was 110 nM; in assay [3] it was 60.3 nM.

B13: AB200-(2Vk44)_R2-VH-v24 (Fab, V domains shown)
VH: QVQLVQSGAEVKKPGSSVKVSCKASGGTFSNYWIHWVRQAPGQGLEWMGGTYRSHSDTYYNEKFKSRVTITADKSTSTAYMELSSLRSEDTAVYYCARGAIFHGYDVIDNWGQGTLVTVSS
VL: DIQMTQSPSSLSASVGDRVTITCRASQSISSYINWYQQKPGKAPKLLIYATSNLQIGVPSRFSGSGSGTDFTLTISSLQPEDFATYYCQQYRRLPWSFGQGTKLEIKR
B13: the Kd came out at 20.8 nM in assay [2] and 6.44 nM in assay [3].

B14: AB200-(2Vk44)_R2-VH-v54 (Fab, V domains shown)
VH: QVQLVQSGAEVKKPGSSVKVSCKASGGSFSNYWIHWVRQAPGQGLEWMGATYRIHSDTNYNEKFKSRVTITADKSTSTAYMELSSLRSEDTAVYYCARGAIYHGYDVIENWGQGTLVTVSS
VL: DIQMTQSPSSLSASVGDRVTITCRASQSISSYINWYQQKPGKAPKLLIYATSNLQIGVPSRFSGSGSGTDFTLTISSLQPEDFATYYCQQYRRLPWSFGQGTKLEIKR
Turning to B14, the figures for the Kd in assay [2] and in assay [3] were 151 nM and 68.8 nM, respectively.

B15: AB200-(2Vk44)_R2-VH-v7 (Fab, V domains shown)
VH: QVQLVQSGAEVKKPGSSVKVSCKASGGTYSNYWIHWVRQAPGQGLEWMGATYRSHSTTYYAQKFKSRVTITADKSTSTAYMELSSLRSEDTAVYYCARGAIYHGFDVIDNWGQGTLVTVSS
VL: DIQMTQSPSSLSASVGDRVTITCRASQSISSYINWYQQKPGKAPKLLIYATSNLQIGVPSRFSGSGSGTDFTLTISSLQPEDFATYYCQQYRRLPWSFGQGTKLEIKR
As for B15, the results for the Kd in assay [2] and in assay [3] were 71.7 nM and 40.6 nM, respectively.

B16: AB200-(2Vk44)_R2-VH-v22 (Fab, V domains shown)
VH: QVQLVQSGAEVKKPGSSVKVSCKASGGTFSNYWIHWVRQAPGQGLEWMGGTYRSQSDTYYNQKFKSRVTITADKSTSTAYMELSSLRSEDTAVYYCARGAVYHGYDVIDNWGQGTLVTVSS
VL: DIQMTQSPSSLSASVGDRVTITCRASQSISSYINWYQQKPGKAPKLLIYATSNLQIGVPSRFSGSGSGTDFTLTISSLQPEDFATYYCQQYRRLPWSFGQGTKLEIKR
Turning to B16, the Kd in assay [2] turned out to be 11.1 nM; in assay [3], 2.31 nM.

B17: AB200-(2Vk44)_R2-VH-v53 (Fab, V domains shown)
VH: QVQLVQSGAEVKKPGSSVKVSCKASGGSFSNYWIHWVRQAPGQGLEWMGATYRIHSDTNYNQKYKSRVTITADKSTSTAYMELSSLRSEDTAVYYCARGAIFHGYDVIDNWGQGTLVTVSS
VL: DIQMTQSPSSLSASVGDRVTITCRASQSISSYINWYQQKPGKAPKLLIYATSNLQIGVPSRFSGSGSGTDFTLTISSLQPEDFATYYCQQYRRLPWSFGQGTKLEIKR
B17: the Kd in assay [2] worked out at 103 nM; in assay [3], 52.5 nM.

B18: AB200-(2Vk44)_R2-VH-v44 (Fab, V domains shown)
VH: QVQLVQSGAEVKKPGSSVKVSCKASGGTFTNYWIHWVRQAPGQGLEWMGATYRIHSDTNYAQKFKSRVTITADKSTSTAYMELSSLRSEDTAVYYCARGAIYHGYDVIENWGQGTLVTVSS
VL: DIQMTQSPSSLSASVGDRVTITCRASQSISSYINWYQQKPGKAPKLLIYATSNLQIGVPSRFSGSGSGTDFTLTISSLQPEDFATYYCQQYRRLPWSFGQGTKLEIKR
B18: the Kd stood at 290 nM in assay [2] and 86.4 nM in assay [3].
